Measured values published in the supplement of paper PMC10126150.
± gives the standard deviation of the averaged measurements.

Test system: ATP
Test: switch fluorescence ratio, 500 uM ATP over buffer (Cy3 cluster intensity, sum of 5 cycles each) (fold (ratio)); higher = stronger signal-on switching upon ATP binding; sequences stand for … in TCGTCGGCAGCGTCAGATGTGTATAAGAGACAGTTTTTTTTTTTTTTTTTTTTTTTTT…TC
Conditions: aptamer strand: ATP DNA aptamer (quencher-CACCTGGGGGAGTATTGCGGAGGAAGG + anchor), 100 nM annealed; ATP concentration: 500 uM
In short: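 For every switch-domain sequence, the fluorescence ratio is the mean of per-cluster values, each being summed target-cycle Cy3 intensity over summed buffer-cycle Cy3 intensity. Clusters outside 100-1000 RFU were excluded. On a modified Illumina MiSeq flow-cell, the Cy3-labelled switching-strand clusters were annealed to 100 nM quencher-labelled ATP aptamer, imaged in selection buffer and then after 15 min with 500 uM ATP at 22 °C. Five such cycles were run, with NaOH stripping and re-annealing between them.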
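Note: ATP exposure 15 min at 22 °C before imaging.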

Sequence	switch fluorescence ratio
CCAAGTGAC	1.26 ± 0.028
CCAAGTGCGG	1.01 ± 0.029
CCAAGTTGCC	0.9929 ± 0.0092
CCAATATTTA	0.994 ± 0.03
CCAATCAGGT	1.08 ± 0.097
CCAATGGTGA	1.16 ± 0.068
CCAATTAATC	1.03 ± 0.032
CCAATTTTTA	1.01 ± 0.03
CCACCTATCT	1.09 ± 0.052
CCACGAATT	1.012 ± 0.0096
CCACGGCAGG	1.229 ± 0.011
CCACGGGATT	1.08 ± 0.035
CCACTAATGG	1.03 ± 0.013
CCACTATTAG	1.03 ± 0.021
CCACTCCGGG	1.192 ± 0.0055
CCACTCTGGG	0.9984 ± 0.0068
CCACTGATCG	1.02 ± 0.022
CCACTGGGCA	1.02 ± 0.042
CCACTGGGTA	1.054 ± 0.0042
CCACTGTTGG	0.992 ± 0.029
CCAGA	1.022 ± 0.006
CCAGAAAAGG	1.31 ± 0.47

Sequence	switch fluorescence ratio
CCAGAAAGGA	0.97 ± 0.029
CCAGAAAGTG	1.26 ± 0.38
CCAGAAGTGA	1.08 ± 0.018
CCAGAGGGTG	1.45 ± 0.52
CCAGAGGTAA	1.04 ± 0.027
CCAGCACTTT	1.008 ± 0.002
CCAGCATGGG	1.02 ± 0.015
CCAGCGGCCA	1.02 ± 0.025
CCAGGAACGA	0.986 ± 0.028
CCAGGATTGG	1 ± 0.006
CCAGGCTGAG	1.05 ± 0.022
CCAGGGGCGA	1.75 ± 0.9
CCAGGGGGAC	1.11 ± 0.018
CCAGGGGGGA	1.18 ± 0.048
CCAGGGGGGT	1.99 ± 1.4
CCAGGGGGTG	1.53 ± 0.32
CCAGGTATAA	1.06 ± 0.041
CCAGGTGGGA	3.53 ± 1.5
CCAGTACCTT	1.09 ± 0.03
CCAGTAGTTT	1 ± 0.013
CCAGTGAGGG	0.99 ± 0.026
CCAGTGTTCT	1.01 ± 0.024

Sequence	switch fluorescence ratio
CCAGTTGGCA	1 ± 0.031
CCATAAGGGA	1.028 ± 0.0055
CCATAGAGAA	1.02 ± 0.043
CCATAGAGAT	1.025 ± 0.0025
CCATAGGATA	1.0259 ± 0.00058
CCATAGTTGC	1.57 ± 0.086
CCATATTGTG	1.02 ± 0.016
CCATATTTTT	0.985 ± 0.015
CCATCATTCA	1 ± 0.028
CCATGGCGGT	1.05 ± 0.033
CCATGGGTGC	1.34 ± 0.024
CCATGGGTGG	1.01 ± 0.011
CCATGTCGTA	0.995 ± 0.016
CCATGTCTGT	0.963 ± 0.015
CCATGTGACT	1.034 ± 0.0057
CCATTAGTAT	1.057 ± 0.0076
CCATTGGGTA	1.01 ± 0.036
CCATTGTCCC	1.05 ± 0.029
CCATTTATTT	1.02 ± 0.019
CCATTTCTTT	1.01 ± 0.067
CCATTTGAGG	0.987 ± 0.059
CCATTTTGCC	0.9878 ± 0.00023

Sequence	switch fluorescence ratio
CCATTTTGCG	1 ± 0.011
CCATTTTTGC	1 ± 0.022
CCCAAACCTG	1.13 ± 0.068
CCCAGGAGTT	1.94 ± 0.16
CCCAGTAGCG	1.03 ± 0.017
CCCAGTTTTT	1.006 ± 0.0054
CCCATCCCCG	1.2 ± 0.084
CCCATGATGG	1.01 ± 0.046
CCCATGTTAA	0.993 ± 0.018
CCCATTTGCT	1.02 ± 0.03
CCCCAGTCAA	3.3 ± 0.43
CCCCCACTGG	1.1 ± 0.15
CCCCGGGGTT	1.88 ± 1.2
CCCCGGGTAA	1.33 ± 0.012
CCCCTTTATT	1.01 ± 0.057
CCCGAATATT	1.06 ± 0.029
CCCGGAGTGT	1.732 ± 0.0079
CCCGGCCCAG	1.05 ± 0.064
CCCGGGAGTG	1.02 ± 0.028
